Reference: paper PMC3632103
Substitutions are numbered along the chain they refer to. Read-outs that look alike come from different tables or passages of the source.

T1: D2 helicase WT (His-MBP fusion) (Bacteriophage T5, UniProt Q6QGH9 1-928)
T1 sequence: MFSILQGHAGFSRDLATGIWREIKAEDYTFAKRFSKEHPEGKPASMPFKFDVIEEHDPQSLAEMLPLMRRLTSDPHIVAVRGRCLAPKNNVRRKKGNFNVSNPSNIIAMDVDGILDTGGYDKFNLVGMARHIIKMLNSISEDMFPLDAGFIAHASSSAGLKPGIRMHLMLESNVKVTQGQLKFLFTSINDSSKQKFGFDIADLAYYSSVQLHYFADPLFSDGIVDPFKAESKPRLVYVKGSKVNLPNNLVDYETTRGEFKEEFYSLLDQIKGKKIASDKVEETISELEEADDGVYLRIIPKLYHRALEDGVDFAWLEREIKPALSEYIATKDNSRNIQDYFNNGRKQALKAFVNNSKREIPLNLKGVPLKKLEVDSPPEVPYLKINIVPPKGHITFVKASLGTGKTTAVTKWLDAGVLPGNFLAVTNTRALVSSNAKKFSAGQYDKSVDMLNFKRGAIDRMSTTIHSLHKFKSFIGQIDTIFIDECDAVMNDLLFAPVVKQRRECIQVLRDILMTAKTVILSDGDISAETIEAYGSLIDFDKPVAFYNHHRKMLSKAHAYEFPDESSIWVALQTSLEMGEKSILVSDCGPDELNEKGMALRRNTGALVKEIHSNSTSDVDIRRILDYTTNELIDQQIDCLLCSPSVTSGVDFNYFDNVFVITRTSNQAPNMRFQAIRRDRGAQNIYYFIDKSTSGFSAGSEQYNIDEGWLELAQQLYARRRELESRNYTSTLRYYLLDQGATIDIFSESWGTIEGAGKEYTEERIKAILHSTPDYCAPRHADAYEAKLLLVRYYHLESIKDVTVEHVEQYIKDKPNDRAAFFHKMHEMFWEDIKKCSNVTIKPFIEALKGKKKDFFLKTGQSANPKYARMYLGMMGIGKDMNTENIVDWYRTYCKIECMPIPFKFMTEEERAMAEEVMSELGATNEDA

T2: D2 helicase K405E (His-MBP fusion) (Bacteriophage T5, UniProt Q6QGH9 1-928, K405E)
T2 sequence: T1 sequence with K405E

B1: T35 (ssDNA)
DNA: TTTTTTTTTTTTTTTTTTTTTTTTTTTTTTTTTTT
B2: T55 (ssDNA)
DNA: TTTTTTTTTTTTTTTTTTTTTTTTTTTTTTTTTTTTTTTTTTTTTTTTTTTTTTT
B3: T25 (ssDNA)
DNA: TTTTTTTTTTTTTTTTTTTTTTTTT

Experiments:
Experiment in all cases: EMSA
[1] = target: T1, D2 helicase WT (His-MBP fusion)
[2] = target: T1, D2 helicase WT (His-MBP fusion); remark: listed apart in the source
[3] = target: T2, D2 helicase K405E (His-MBP fusion)

Binder	binding result [1]	binding result [2]	binding result [3]
B1	binds	–	–
B2	binds	–	–
B3	–	binds	binds
